{"source": "patent US11702469B2", "about": "“Recombinant EGFL7, EGFL7 antibodies, and uses thereof” (Ohio State Innovation Foundation, priority 2017, dated 2023)", "key": {"[1]": {"tested_on": "HES-1", "experiment": "HES-1 / HES1 RT-PCR in primary AML blasts", "type": "cell-based, human", "method": "FIG. 15A-15D. EGFL7 binds and antagonizes NOTCH2 signaling. FIG. 15A. Co-IPs in Kasumi-1 cells using anti-EGFL7 antibody or normal rabbit IgG in Protein G Plus/Protein A agarose beads. Eluate was analyzed by immunoblotting for NOTCH1,-3, and EGFL7. FIG. 15B. Co-IPs with rabbit anti NOTCH1-3 antibody or normal rabbit IgG in Protein G Plus/Protein A agarose beads. FIG. 15C. Immunoblot for cleaved and total NOTCH2 in primary AML blasts stimulated in 0.25 μM rEGFL7. FIG. 15D. RT-PCR on primary AML blasts stimulated with 0.25 μM rEGFL7, *P<0.05.\nFIG. 18A-18B. Parsatuzumab decreases blast growth and activation of NOTCH downstream signaling. FIG. 18A. […]\nFIG. 23A-23E. […] (FIG. 23B) Total RNA was extracted for quantitative real time (qRT-PCR) analysis of HES1 mRNA with β-ACTIN as internal control. *p<0.05 vs un-stimulated control (Unstim). […] Total RNA was extracted for quantitative real time RT-PCR analysis of HES1 mRNA with β-ACTIN as internal control. *p<0.05, ***p<0.001 vs IgG.\nTotal RNA was extracted using Trizol reagent (Invitrogen, Carlsbad, Calif., USA). cDNA was synthesized using SuperScript III reagents (Invitrogen) according to the manufacturer's instruction. Quantitative Real-Time RT-PCR was performed using commercially available TaqMan Gene Expression Assay primers and the 7900HT Fast Real-Time PCR System (Applied Biosystems, Foster City, Calif., USA). […]"}, "[2]": {"tested_on": "BoyJ recipient mice", "experiment": "Competitive repopulation BM transplantation of treated BM", "type": "in vivo", "details": "three weeks post-BMT, BM of treated mice vs IgG1 control", "method": "FIG. 20A-20B. WT mice were treated with 50 mpk twice weekly of Parsatuzumab (@EGFL7) or IgG1 control. FIG. 20A. CBCs from mice harvested after treatment. FIG. 20B. Percent engraftment of treated BM (CD45.2+) transplanted into BoyJ recipient mice (CD45.1).\nTo assess the toxicity of Parsatuzumab on normal hematopoiesis, wild type (C57Bl/6J) mice were treated with Parsatuzumab (n=4) and IgG1 control (n=4) with the highest dose previously tested at 50 mpk twice a week for two weeks. Parsatuzumab targets both human and mouse EGFL7 protein. After two weeks of treatment, blood, spleen and BM were harvested and full phenotypic characterization was performed to assess toxicity. […] Full immunophenotypic examination of BM populations was also performed (data not shown due to space constraints). […] To functionally test the effect of Parsatuzumab on normal HSPCs, competitive repopulation BM transplantation (BMT) assays and CFU assays were performed. For competitive BMT, 2×10^6 WBM was harvested from Parsatuzumab and IgG1 treated mice (CD45.2) with 2×10^6 BoyJ (CD45.1) WBM and transplanted into lethally irradiated BoyJ recipients."}}, "note": "Entries after “also recorded” stand apart in the source; their conditions may differ.", "data": [{"molecule": "Parsatuzumab: Anti-human EGFL7 therapeutic antibody (Parsatuzumab) obtained from Creative Biolabs; blocking monoclonal antibody (antibody, chains of the INN, looked up, V domains shown) VH: EVQLVESGGGLVQPGGSLRLSCAASGYTFIDYYMNWVRQAPGKGLEWVGDINLDNSGTHYNQKFKGRFTISRDKSKNTAYLQMNSLRAEDTAVYYCAREGVYHDYDDYAMDYWGQGTLVTVSS VL: DIQMTQSPSSLSASVGDRVTITCRTSQSLVHINAITYLHWYQQKPGKAPKLLIYRVSNRFSGVPSRFSGSGSGTDFTLTISSLQPEDFATYYCGQSTHVPLTFGQGTKVEIK", "values": [{"measurement": "expression of HES1", "setting": "[1]; 100 μg/ml, 2 and 10 hrs post treatment, vs IgG", "result": "concomitant increases"}, {"measurement": "HES-1 mRNA expression", "setting": "[1]; 4 and 24 hours after addition, vs IGg1 controls", "result": "significant increases in HES-1 expression"}, {"measurement": "donor chimerism / percent engraftment (CD45.1 vs CD45.2)", "setting": "[2]", "result": "no significant differences; also recorded: No significant changes"}]}]}
